These results are taken from the Immune Epitope Database (IEDB).

The target in one assay is HLA-A*11:01. The experiment in a line: IEDB peptide-MHC binding, purified MHC/direct/fluorescence; filed as Kd, often an IC50 or EC50 that approximates it; ≥ and ≤ were set here for values at or beyond the usual limits of such assays. The conditions noted are these: source organism: Vibrio parahaemolyticus.
Another assay deals with HLA-B*48:01. The assay is described as above. The settings on record: source organism: Vibrio parahaemolyticus.
The next assay has as its target HLA-A*31:01. The assay is described as above. The settings on record: source organism: Vibrio parahaemolyticus.
The target of the next assay is HLA-B*08:03. The assay is described as above. The settings on record: source organism: Vibrio parahaemolyticus RIMD 2210633.
The target in a further assay is HLA-B*40:01. The description is as above. The conditions noted are these: source organism: Vibrio parahaemolyticus.
The target of a further assay is HLA-B*58:01. The assay is described as above. The conditions noted are these: source organism: Vibrio parahaemolyticus.
For a further assay, the target named is HLA-A*01:01. Described as above. The conditions noted are these: source organism: Vibrio parahaemolyticus.
The next assay addresses HLA-B*57:01. The assay is described as above. The settings on record: source organism: Vibrio parahaemolyticus.
The next assay has as its target HLA-A*02:01. The description is as above. The settings on record: source organism: Vibrio parahaemolyticus.
The target of a further assay is HLA-A*68:02. The assay is described as above. The settings on record: source organism: Vibrio parahaemolyticus.
For the next assay, the target named is HLA-B*08:02. The description is as above. The settings on record: source organism: Vibrio parahaemolyticus RIMD 2210633.
The target in the next assay is HLA-B*08:01. Described as above. The conditions noted are these: source organism: Vibrio parahaemolyticus RIMD 2210633.
A further assay has as its target HLA-A*03:01. The assay is described as above. The settings on record: source organism: Vibrio parahaemolyticus.
The next assay addresses HLA-B*07:02. The assay is described as above. The settings on record: source organism: Vibrio parahaemolyticus.
For another assay, the target named is HLA-B*27:05. The assay is described as above. The conditions noted are these: source organism: Vibrio parahaemolyticus.
A further assay deals with HLA-B*15:01. Kind of assay: IEDB peptide-MHC binding, purified MHC/competitive/fluorescence; filed as Kd, often an IC50 or EC50 that approximates it; ≥ and ≤ were set here for values at or beyond the usual limits of such assays. The settings on record: source organism: Vibrio parahaemolyticus RIMD 2210633.
For a further assay, the target named is HLA-A*26:03. The description is as above. The settings on record: source organism: Vibrio parahaemolyticus RIMD 2210633.
The target of another assay is HLA-A*26:01. Described as above. The conditions noted are these: source organism: Vibrio parahaemolyticus RIMD 2210633.
The next assay deals with HLA-B*18:01. The assay is described as above. The conditions noted are these: source organism: Vibrio parahaemolyticus RIMD 2210633.
The next assay deals with HLA-A*26:02. Described as above. The settings on record: source organism: Vibrio parahaemolyticus RIMD 2210633.
The next assay addresses HLA-B*35:01. The assay is described as above. The settings on record: source organism: Vibrio parahaemolyticus RIMD 2210633.
For the next assay, the target named is HLA-B*15:17. The description is as above. The conditions noted are these: source organism: Vibrio parahaemolyticus RIMD 2210633.

For the sequence ILRPLGIEY, the Kd with HLA-A*11:01, with HLA-B*48:01, in the assay with HLA-A*31:01, with HLA-B*08:03, with HLA-B*40:01 and with HLA-B*58:01 was not below 20 µM throughout. Also, the Kd – broadly, a measure of binding affinity in units of concentration – with HLA-A*01:01 is 2020 nM; with HLA-B*57:01 it was 1530 nM; with HLA-A*02:01, not below 20 µM; in the assay with HLA-A*68:02 it was not below 20 µM; with HLA-B*08:02, not below 20 µM; in the assay with HLA-B*08:01 it was not below 20 µM. Also, the Kd is 116 nM in the assay with HLA-A*03:01; not below 20 µM in the assay with HLA-B*07:02; not below 20 µM with HLA-B*27:05; 282 nM with HLA-B*15:01; not below 20 µM with HLA-A*26:03; 478 nM with HLA-A*26:01. Further, the Kd with HLA-B*18:01 stood at 159 nM; with HLA-A*26:02 it was 403 nM; in the assay with HLA-B*35:01, 226 nM; with HLA-B*15:17 it was 48.8 nM.
